Among the data in patent publication US20150065381A1 are ELISA OD values, retold here.

Where “and” joins values, the source holds several entries; their conditions need not be identical. Identical values can stand only once.

Experiment [1] deals with HIV-1 JRCSF envelope (HIV-1) (UniProt P20871). Kind of experiment: capture ELISA, plate 1, mAb 0.8 ug/ml. In general terms: In an ELISA, binding on a coated surface is turned into a signal by an enzyme label.
The target in experiment [2] is HIV-1 envelope of gp160 clone AG-010.c14 (HIV-1). Kind of experiment: capture ELISA, plate 1, mAb 0.8 ug/ml.
For experiment [3], the target named is HIV-1 envelope of gp160 clone B-Acute-009-c08 (HIV-1). Kind of experiment: capture ELISA, plate 1, mAb 0.8 ug/ml.
In experiment [4] the target is BG505 envelope (gp120 monomer released from lysed pseudovirus) (HIV-1). Kind of experiment: antigen capture ELISA, mAb 0.3 ug/ml, plate 2.
For experiment [5], the target named is aMLV envelope (from lysed pseudovirus). Kind of experiment: antigen capture ELISA, mAb 0.3 ug/ml, plate 2.
The target in experiment [6] is BG505 envelope (gp120 monomer released from lysed pseudovirus) (HIV-1). Kind of experiment: antigen capture ELISA, mAb 0.8 ug/ml, plate 1.
Experiment [7] concerns the target aMLV envelope (from lysed pseudovirus). Kind of experiment: antigen capture ELISA, mAb 0.8 ug/ml, plate 1.
For experiment [8], the target named is HIV-1 envelope clone F1-002.c11 (multiclade gp160 clone panel) (HIV-1). Put plainly: capture ELISA, plate 1, mAb 0.8 ug/ml.
The target in experiment [9] is HIV-1 envelope clone F1-002.c16 (multiclade gp160 clone panel) (HIV-1). Put plainly: capture ELISA, plate 1, mAb 0.8 ug/ml.
The target of experiment [10] is 16055 envelope (gp120 monomer released from lysed pseudovirus) (HIV-1). Put plainly: antigen capture ELISA, mAb 0.3 ug/ml, plate 1.
The target of experiment [11] is JRFL envelope (gp120 monomer released from lysed pseudovirus) (HIV-1) (UniProt P20871). Kind of experiment: antigen capture ELISA, mAb 0.3 ug/ml, plate 1.
Experiment [12] concerns the target 16055 envelope (gp120 monomer released from lysed pseudovirus) (HIV-1). Kind of experiment: antigen capture ELISA, mAb 0.3 ug/ml, plate 2.
In experiment [13] the target is JRFL envelope (gp120 monomer released from lysed pseudovirus) (HIV-1) (UniProt P20871). Kind of experiment: antigen capture ELISA, mAb 0.3 ug/ml, plate 2.
Experiment [14] has as its target 16055 envelope (gp120 monomer released from lysed pseudovirus) (HIV-1). Kind of experiment: antigen capture ELISA, mAb 0.8 ug/ml, plate 1.
In experiment [15] the target is JRFL envelope (gp120 monomer released from lysed pseudovirus) (HIV-1) (UniProt P20871). Put plainly: antigen capture ELISA, mAb 0.8 ug/ml, plate 1.
Experiment [16] concerns the target 16055 envelope (gp120 monomer released from lysed pseudovirus) (HIV-1). Kind of experiment: antigen capture ELISA, mAb 0.8 ug/ml, plate 2.
The target in experiment [17] is JRFL envelope (gp120 monomer released from lysed pseudovirus) (HIV-1) (UniProt P20871). Kind of experiment: antigen capture ELISA, mAb 0.8 ug/ml, plate 2.
Experiment [18] has as its target 16055 envelope (gp120 monomer released from lysed pseudovirus) (HIV-1). Kind of experiment: antigen capture ELISA, mAb 2.5 ug/ml, plate 2.
For experiment [19], the target named is JRFL envelope (gp120 monomer released from lysed pseudovirus) (HIV-1) (UniProt P20871). Kind of experiment: antigen capture ELISA, mAb 2.5 ug/ml, plate 2.
Experiment [20] concerns the target 16055 envelope (gp120 monomer released from lysed pseudovirus) (HIV-1). Kind of experiment: antigen capture ELISA, mAb 7.5 ug/ml, plate 2.
Experiment [21] deals with JRFL envelope (gp120 monomer released from lysed pseudovirus) (HIV-1) (UniProt P20871). Kind of experiment: antigen capture ELISA, mAb 7.5 ug/ml, plate 2.
Experiment [22] addresses HIV-1 envelope of gp160 clone B-Acute-009-c08 (HIV-1). Put plainly: capture ELISA, original data.
Experiment [23] addresses 16055 envelope (gp120 monomer released from lysed pseudovirus) (HIV-1). Put plainly: antigen capture ELISA, mAb 2.5 ug/ml, plate 1.
In experiment [24] the target is JRFL envelope (gp120 monomer released from lysed pseudovirus) (HIV-1) (UniProt P20871). Put plainly: antigen capture ELISA, mAb 2.5 ug/ml, plate 1.
Experiment [25] deals with 16055 envelope (gp120 monomer released from lysed pseudovirus) (HIV-1). Put plainly: antigen capture ELISA, mAb 7.5 ug/ml, plate 1.
In experiment [26] the target is JRFL envelope (gp120 monomer released from lysed pseudovirus) (HIV-1) (UniProt P20871). Kind of experiment: antigen capture ELISA, mAb 7.5 ug/ml, plate 1.

Take PG9 (antibody): the ELISA OD in experiment [1] was 0.24 OD and 0.235 OD; in [2], 0.67 OD; in [3], 0.076 OD; in experiment [4], 0.162 OD; in experiment [5], 0.057 OD and 0.063 OD; in [6] it was 0.261 OD. Moreover, the ELISA OD in [7] was 0.091 OD and 0.06 OD.
PG16 (antibody): the ELISA OD is 0.169 OD and 0.154 OD in experiment [1]; 0.146 OD in [8]; 0.341 OD in experiment [9]; 0.491 OD in experiment [2]; 0.058 OD in experiment [3]; 0.101 OD and 0.122 OD in [10]. In addition, the ELISA OD in experiment [11] was 0.063 OD and 0.097 OD; in experiment [12], 0.107 OD and 0.112 OD; in experiment [4] it was 0.067 OD; in experiment [13], 0.065 OD and 0.075 OD; in [5], 0.096 OD and 0.103 OD; in [14], 0.129 OD and 0.11 OD. Moreover, the ELISA OD is 0.165 OD in experiment [6]; 0.064 OD and 0.071 OD in [15]; 0.073 OD and 0.056 OD in experiment [7]; 0.156 OD and 0.105 OD in [16]; 0.063 OD and 0.061 OD in experiment [17]; 0.195 OD and 0.122 OD in experiment [18]. In addition, the ELISA OD was 0.081 OD and 0.096 OD in [19]; 0.155 OD and 0.143 OD in experiment [20]; 0.111 OD and 0.136 OD in experiment [21].
In the case of PGT151 (antibody), the ELISA OD was 0.264 OD in experiment [22]; 0.058 OD and 0.056 OD in experiment [1]; 0.065 OD in experiment [8]; 0.068 OD in [9]; 0.102 OD in experiment [2]; 0.066 OD in [3]. The ELISA OD in experiment [4] was 0.057 OD; in [5], 0.053 OD and 0.128 OD; in experiment [6] it was 0.054 OD; in [7] it was 0.054 OD and 0.05 OD.
For the substance PGT145 (antibody), the ELISA OD was 0.219 OD in [22]; 0.058 OD and 0.056 OD in experiment [1]; 0.067 OD in experiment [8]; 0.269 OD in experiment [9]; 0.054 OD in experiment [2]; 0.062 OD in experiment [3]. The ELISA OD in [4] is 0.066 OD; in experiment [5], 0.065 OD and 0.157 OD; in [6] it was 0.066 OD; in [7], 0.056 OD and 0.073 OD.
Turning to PGV04 (antibody), the ELISA OD in experiment [1] is 0.896 OD and 1.04 OD; in experiment [8], 0.079 OD; in experiment [9], 0.118 OD; in [2], 0.15 OD; in [3] it was 0.079 OD; in [10] it was 0.054 OD and 0.065 OD. Also, the ELISA OD in experiment [11] is 0.344 OD and 0.34 OD; in experiment [12] it was 0.079 OD and 0.122 OD; in experiment [4] it was 0.45 OD; in experiment [13] it was 0.395 OD and 0.44 OD; in [5], 0.095 OD and 0.115 OD; in experiment [14], 0.055 OD and 0.059 OD. Further, the ELISA OD in experiment [6] was 0.745 OD; in experiment [15], 0.673 OD and 0.722 OD; in [7], 0.053 OD and 0.117 OD; in [16] it was 0.073 OD and 0.071 OD; in experiment [17], 0.796 OD and 0.763 OD; in experiment [23], 0.066 OD and 0.071 OD. For the same substance, the ELISA OD in experiment [24] was 1.17 OD and 1.25 OD; in experiment [18] it was 0.126 OD and 0.095 OD; in [19], 1.55 OD and 1.51 OD; in experiment [25], 0.071 OD and 0.068 OD; in experiment [26], 1.94 OD and 1.84 OD; in experiment [20], 0.108 OD and 0.113 OD. For the same substance, the ELISA OD in experiment [21] was 2.49 OD and 2.36 OD.
